{"source": "paper PMC7229763", "binders": {"B1": {"name": "ITC dsDNA (30 bp, same sequence as EMSA probe) (dsDNA)", "DNA 1": "GAATCCTAACTGGGCGGAGTTATGCTGGTG", "DNA 2": "CACCAGCATAACTCCGCCCAGTTAGGATTC"}}, "target": "T1, BAF-WT (Homo sapiens, UniProt O75531 1-89)", "T1 sequence": "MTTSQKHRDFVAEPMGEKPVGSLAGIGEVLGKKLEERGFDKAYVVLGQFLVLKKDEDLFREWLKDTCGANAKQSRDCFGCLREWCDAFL", "test": "ITC"}
{"binder": "B1", "values": [{"measurement": "Ka", "result": "1.89 ± 0.19 uM (as printed for KA; dimension inconsistent, possibly 10^6 M-1)"}]}
